Source: publication PMC3118421

Target: human dimeric IgA2 anti-NIP, wild type (not stated | human | mouse)
Experiment: rosetting assay

B1: streptococcal IgA-binding M protein Arp4 (M4) (natural protein)
chain: AEIKKPQADSAWNWPKEYNALLKENEELKVEREKYLSYADDKEKDPQYRALMGENQDLRKREGQYQDKIEELEKERKEKQERQEQLERQYQIEADKHYQEQQKKHQQEQQQLEAEKQKLAKDKQISDASRQGLSRDLEASRAAKKELEAEHQKLKEEKQISDASRQGLSRDLEASREAKKKVEADLAALTAEHQKLKEDKQISDASRQGLSRDLEASREAKKKVEADLAEANSKLQALEKLNKELEEGKKLSEKEKAELQARLEAEAKALKEQLAKQAEELAKLKGNQTPNAKVAPQANRSRSAMTQQKRTLPST
Work on B1 yielded a percent inhibition of dIgA binding to hFcα/μR (rosettes, Arp4 at 100 μg/mL) of 50%.
